From patent US12565517B2, “Cyclic peptide having CTLA-4 inhibitory activity and use thereof” (GeneFrontier Corporation, priority 2019, dated 2026)

Biological target: T1, CTLA-4 (Homo sapiens, UniProt P16410)
T1 sequence (P16410 36-223): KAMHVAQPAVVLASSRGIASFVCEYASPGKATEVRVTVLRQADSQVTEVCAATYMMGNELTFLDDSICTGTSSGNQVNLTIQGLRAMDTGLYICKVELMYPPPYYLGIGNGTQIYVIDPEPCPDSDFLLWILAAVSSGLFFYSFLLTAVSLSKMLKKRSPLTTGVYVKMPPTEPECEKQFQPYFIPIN
Assay: ELISA binding of clones after Affinity Maturation with random library (Tables 10, 11)
Description: After each round of Affinity Maturation, the cyclic peptide genes were recovered and subcloned into pET-Mal vector (FIG. 2) in the same manner as described above to perform base sequence analysis. For the 94 single colonies analyzed for sequence, E. coli transformants were inoculated into 100 μL of 2×YT medium containing ampicillin (final concentration 50 μg/mL), incubated at 37° C. for 3-5 hours (OD600=0.5-0.8), then added with IPTG (final concentration 0.5 mM) and incubated at 25° C. overnight. 10 μL of E. coli cultured medium was added with 90 μL of PBS and 40 μL of lysis reagent (20 μL BugBuster Protein Extraction Reagent (Novagen), 20 μL Lysozyme solution 2.5 mg/mL) to lyse E. coli cells for 1 hour at room temperature. The cell lysate was added with 40 μL of 12.5% skim milk solution (TBST) and blocked for 1 hour at room temperature. In parallel, antigen protein was immobilized overnight at 4° C. in 384-well plates at 100 ng/20 μL per well, and each well was washed twice with 100 μL/well of TBST, added with 100 μL/well of 5% skim milk solution (TBST) for blocking for 1 hour at room temperature, and washed twice with 100 μL/well of TBST to obtain antigen-immobilized plates. 20 μL/well of blocking-treated E. coli extract was added to the antigen-immobilized plates and gently stirred at room temperature using a plate mixer. After 1 hour, the plates were washed 5 times with 100 μL/well of TBST, 20 μL/well of anti-FLAG M2-HRP conjugate (1:2000 dilution, Sigma) was added and gently stirred on a plate mixer for 1 hour at room temperature. The plates were washed 5 times with 100 μL/well of TBST, and binding of cyclic peptides to the antigen was detected by 20 μL/well of chromogenic substrate (0.4 mg/mL 3,3′,5,5′-Tetramethyl-benzidine, 0.01% hydrogen peroxide). After 15 minutes of reaction at room temperature, the reaction was stopped with 20 μL/well of 2N HCl, and absorbance at 450 nm was measured using a plate reader (infinite F200: TECAN) (Table 5).
Oligo DNAs of a library were synthesized (see below), in which amino acid residues (positions 1, 4, 8, 10, +1 and +2) (corresponding to X1, […], X8, X10, X+1 and X+2) other than those essential or advantageous for CTLA-4 binding (2H, 3P, 5L, 6P, 7I, 9S, 11H, 12F) identified by alanine scanning were randomized (NNS).
Affinity Maturation was performed in the same manner as described above. The amount of biotinylated CTLA-4 immobilized on the magnetic beads was 10 pmol in the 1st round, 2 pmol in the 2nd round, and 1 pmol in the 3nd-5th rounds, respectively. The washing period was 2 hours for the 1st round, 19 hours for the 2nd round, 67 hours for the 3nd round, 140 hours for the 4th round, and 340 hours for the 5th round. Washing frequency was 1 time (2 hours) in the 1st round, 2 times (every 10 hours) in the 2nd round, 6 times (every 10 hours) in the 3rd round, 14 times (every 10 hours) in the 4th round, and 36 times (every 10 hours) in the 5th round.

[1] = CTLA-4 binding ELISA of clones after Affinity Maturation from random (NNS) library, signal/noise ratio, clones of 4th or 5th round

Substance	ELISA S/N(SA) [1]	ELISA S/N(SA) (S/N ratio of CTLA-4 binding in ELISA, clones from 4th or 5th round of Affinity Maturation from random (NNS) library)
C4m#19-5th2w-NNS6-68 (GGCLHPWLPIVSCHFCPR; C4m#19-5th2w-NNS6-68)	4.6	
C4m#19-5th2w-NNS6-70 (GGCRHPFLPIVSWHFCAA; C4m#19-5th2w-NNS6-70)	5.1	
C4m#19-5th2w-NNS6-75 (GGCWHPWLPIKSPHFCAL; C4m#19-5th2w-NNS6-75)	15.3	
C4m#19-5th2w-NNS6-80 (GGCLHPFLPIVSWHFCPC; C4m#19-5th2w-NNS6-80)	3.6	
C4m#19-5th2w-NNS6-84 (GGCWHPFLPIVSFHFCPF; C4m#19-5th2w-NNS6-84)	6.4	
C4m#19-5th2w-NNS6-90 (GGCRHPFLPIVSFHFCPF; C4m#19-5th2w-NNS6-90)	19.7	
C4m#19-5th2w-NNS6-93 (GGCFHPFLPIQSRHFCCR; C4m#19-5th2w-NNS6-93)		3.4
C4m#19-5th4w-NN6-1 (GGCRHPYLPIFSAHFCRS; C4m#19-5th4w-NN6-1)	16.1	
C4m#19-5th4w-NN6-2 (GGCWHPHLPIVSSHFCLF; C4m#19-5th4w-NN6-2)	18.4	
C4m#19-5th4w-NN6-5-1 (GGCWHPYLPIQSLHFCPF; C4m#19-5th4w-NN6-5-1)	14.7	
C4m#19-5th4w-NN6-6 (GGCMHPFLPIKSSHFCRK; C4m#19-5th4w-NN6-6)	16.1	
C4m#19-5th4w-NN6-14 (GGCWHPFLPIRSVHFCCR; C4m#19-5th4w-NN6-14)	16.1	
C4m#19-5th4w-NN6-15 (GGCLHPFLPIRSVHFCPF; left off: large carriers; small tags and cut ends)	39.9	
C4m#19-5th4w-NN6-19 (GGCRHPYLPIWSIHFCQK; C4m#19-5th4w-NN6-19)	29.7	
C4m#19-5th4w-NN6-20 (GGCSHPQLPILSDHFCSA; C4m#19-5th4w-NN6-20)	30.6	
C4m#19-5th4w-NN6-21 (GGCWHPWLPILSPHFCPR; C4m#19-5th4w-NN6-21)	37.5	

Substance	ELISA S/N(SA) [1]	ELISA S/N(SA) (S/N ratio of CTLA-4 binding in ELISA, clones from 4th or 5th round of Affinity Maturation from random (NNS) library)
C4m#19-5th4w-NN6-23 (GGCRHPHLPIWSWHFCGR; C4m#19-5th4w-NN6-23)	30.2	
C4m#19-5th4w-NN6-24 (GGCWHPWLPIYSHHFCPI; C4m#19-5th4w-NN6-24)	27.6	
C4m#19-5th4w-NN6-30 (GGCWHPFLPIMSFHFCPY; C4m#19-5th4w-NN6-30)	16.7	
C4m#19-5th4w-NN6-32 (GGCPHPFLPIWSVHFCPF; C4m#19-5th4w-NN6-32)	27.2	
C4m#19-5th4w-NN6-36 (GGCRHPYLPIWSAHFCCR; C4m#19-5th4w-NN6-36)	5.7	
C4m#19-5th4w-NN6-37 (GGCLHPFLPISSWHFCGR; C4m#19-5th4w-NN6-37)	22.7	
C4m#19-5th4w-NN6-38 (GGCSHPFLPIFSLHFCPV; C4m#19-5th4w-NN6-38)	16.6	
C4m#19-5th4w-NN6-50 (GGCKHPVLPIWSWHFCRI; C4m#19-5th4w-NN6-50)	28.1	
C4m#19-5th4w-NN6-55-4 (GGCVHPSLPILSVHFCPR; C4m#19-5th4w-NN6-55-4)	29.5	
C4m#19-5th4w-NN6-59 (GGCLHPHLPIWSLHFCPL; C4m#19-5th4w-NN6-59)	27.6	
C4m#19-5th4w-NN6-61 (GGCPHPMLPIFSVHFCPY; C4m#19-5th4w-NN6-61)	5.9	
C4m#19-5th4w-NN6-64 (GGCWHPVLPIRSVHFCCR; C4m#19-5th4w-NN6-64)	13.7	
C4m#19-5th4w-NN6-68 (GGCLHPWLPIRSRHFCSR; C4m#19-5th4w-NN6-68)	24.7	
C4m#19-5th4w-NN6-69-1 (GGCSHPFLPILSVHFCPF; C4m#19-5th4w-NN6-69-1)	24.9	
C4m#19-5th4w-NN6-69-3 (GGCLHPWLPIVSVHFCAR; C4m#19-5th4w-NN6-69-3)	24.9	

Continued, values first:

ELISA S/N(SA) [1]	ELISA S/N(SA) (S/N ratio of CTLA-4 binding in ELISA, clones from 4th or 5th round of Affinity Maturation from random (NNS) library)	Substance
7.0		C4m#19-5th2w-NNS6-74 (GGCMHPFLPIRSWHFCSR; C4m#19-5th2w-NNS6-74)
9.2		C4m#19-5th2w-NNS6-79 (GGCRHPFLPIVSRHFCVA; C4m#19-5th2w-NNS6-79)
7.7		C4m#19-5th2w-NNS6-86 (GGCFHPYLPIWSLHFCRS; C4m#19-5th2w-NNS6-86)
4.5		C4m#19-5th2w-NNS6-87 (GGCLHPYLPIFSVHFCAL; C4m#19-5th2w-NNS6-87)
22.4		C4m#19-5th2w-NNS6-94 (GGCFHPYLPISSVHFCGR; C4m#19-5th2w-NNS6-94)
31.6		C4m#19-5th4w-NN6-4 (GGCRHPYLPIVSRHFCPF; C4m#19-5th4w-NN6-4)
23.0		C4m#19-5th4w-NN6-7 (GGCRHPFLPIWSWHFCPF; C4m#19-5th4w-NN6-7)
28.8		C4m#19-5th4w-NN6-9 (GGCFHPYLPIRSWHFCGR; C4m#19-5th4w-NN6-9)
22.1		C4m#19-5th4w-NN6-11 (GGCRHPFLPIWSHHFCVC; C4m#19-5th4w-NN6-11)
38.9		C4m#19-5th4w-NN6-25 (GGCLHPVLPIRSRHFCPV; C4m#19-5th4w-NN6-25)
32.2		C4m#19-5th4w-NN6-34 (GGCFHPFLPIRSDHFCSR; C4m#19-5th4w-NN6-34)
35.6		C4m#19-5th4w-NN6-39 (GGCWHPFLPIRSLHFCPR; C4m#19-5th4w-NN6-39)
4.0		C4m#19-5th4w-NN6-40 (GGCFHPFLPIRSHHFCML; C4m#19-5th4w-NN6-40)
30.1		C4m#19-5th4w-NN6-44 (GGCRHPFLPIVSWHFCGR; C4m#19-5th4w-NN6-44)
15.8		C4m#19-5th4w-NN6-45 (GGCRHPWLPIWSVHFCGV; C4m#19-5th4w-NN6-45)
14.2		C4m#19-5th4w-NN6-46-1 (GGCVHPALPIWSFHFCPS; C4m#19-5th4w-NN6-46-1)
34.2		C4m#19-5th4w-NN6-47 (GGCPHPWLPIFSRHFCPV; C4m#19-5th4w-NN6-47)
4.0		C4m#19-5th4w-NN6-49 (GGCMHPYLPIRSFHFCSC; C4m#19-5th4w-NN6-49)
22.1		C4m#19-5th4w-NN6-51 (GGCWHPYLPIVSWHFCSR; C4m#19-5th4w-NN6-51)
28.6		C4m#19-5th4w-NN6-52 (GGCLHPFLPIRSVHFCGC; C4m#19-5th4w-NN6-52)
32.2		C4m#19-5th4w-NN6-53 (GGCRHPFLPIYSVHFCAC; C4m#19-5th4w-NN6-53)
33.3		C4m#19-5th4w-NN6-54 (GGCLHPGLPIRSLHFCPR; C4m#19-5th4w-NN6-54)
27.1		C4m#19-5th4w-NN6-56 (GGCWHPFLPIQSLHFCGV; C4m#19-5th4w-NN6-56)
27.7		C4m#19-5th4w-NN6-57 (GGCMHPYLPIVSVHFCPC; C4m#19-5th4w-NN6-57)
18.7		C4m#19-5th4w-NN6-58 (GGCRHPFLPISSIHFCCI; C4m#19-5th4w-NN6-58)
17.2		C4m#19-5th4w-NN6-62 (GGCQHPYLPIWSFHFCPF; C4m#19-5th4w-NN6-62)
16.5		C4m#19-5th4w-NN6-63 (GGCWHPYLPILSRHFCQA; C4m#19-5th4w-NN6-63)
12.5		C4m#19-5th4w-NN6-65 (GGCWHPFLPILSLHFCSR; C4m#19-5th4w-NN6-65)
29.5		C4m#19-5th4w-NN6-65-1 (GGCWHPFLPISSPHFCGR; left off: large carriers; small tags and cut ends)
45.4		C4m#19-5th4w-NN6-67 (GGCLHPFLPIRSVHFCPR; C4m#19-5th4w-NN6-67)
